Substitutions are numbered along the chain they refer to. In names and notes the source's numbering stands.
Columns and labels:
[1] = target: T1, human CD155 (poliovirus receptor, PVR) on cells (U87/U87MG, HAP1) (human, UniProt P15151 21-417); experiment: cell binding on HAP-1 cells
T1 construct: whole, on cells
T1 sequence (looked up): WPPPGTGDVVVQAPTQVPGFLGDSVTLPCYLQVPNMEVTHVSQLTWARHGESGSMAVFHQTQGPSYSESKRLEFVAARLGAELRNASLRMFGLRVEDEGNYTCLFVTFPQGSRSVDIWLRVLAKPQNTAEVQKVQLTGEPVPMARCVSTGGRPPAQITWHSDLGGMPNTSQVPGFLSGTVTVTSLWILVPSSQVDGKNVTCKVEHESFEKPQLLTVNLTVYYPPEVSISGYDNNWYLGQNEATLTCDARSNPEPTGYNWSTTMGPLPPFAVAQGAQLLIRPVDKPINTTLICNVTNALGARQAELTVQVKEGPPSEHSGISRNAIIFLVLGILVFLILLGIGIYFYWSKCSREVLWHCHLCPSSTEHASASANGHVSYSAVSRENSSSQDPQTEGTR

[2] = target: T1, human CD155 (poliovirus receptor, PVR) …; experiment: cell binding on U-87 cells
[3] = target: T2, African green monkey PVR (CD 155) on Vero cells (African green monkey); experiment: cell binding on Vero cells
T2 construct: whole, on cells

[4] = target: T3, poliovirus receptor (PVR, CD 155), form not stated (UniProt P15151 21-343, limits assumed); experiment: surface plasmon resonance (Biacore)
T3 sequence (looked up): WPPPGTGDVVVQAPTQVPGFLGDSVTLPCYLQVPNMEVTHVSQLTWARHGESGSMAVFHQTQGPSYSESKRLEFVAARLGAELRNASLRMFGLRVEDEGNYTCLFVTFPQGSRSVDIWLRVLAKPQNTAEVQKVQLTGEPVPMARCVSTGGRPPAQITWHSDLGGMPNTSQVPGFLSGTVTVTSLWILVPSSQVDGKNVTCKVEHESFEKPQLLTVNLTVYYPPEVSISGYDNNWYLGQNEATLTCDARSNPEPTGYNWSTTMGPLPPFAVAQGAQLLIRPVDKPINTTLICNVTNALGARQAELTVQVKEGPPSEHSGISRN

[5] = target: T1, human CD155 (poliovirus receptor, PVR) …; experiment: in vivo fluorescence imaging of mice with U87MG tumors, 72 hours after injection
Experimental: Ab825-VT680 conjugate binds and accumulates in U87MG tumors In Vivo. The control mice were either untreated or treated with VT 680 dye alone.

T2 sequence (P32506 21-417): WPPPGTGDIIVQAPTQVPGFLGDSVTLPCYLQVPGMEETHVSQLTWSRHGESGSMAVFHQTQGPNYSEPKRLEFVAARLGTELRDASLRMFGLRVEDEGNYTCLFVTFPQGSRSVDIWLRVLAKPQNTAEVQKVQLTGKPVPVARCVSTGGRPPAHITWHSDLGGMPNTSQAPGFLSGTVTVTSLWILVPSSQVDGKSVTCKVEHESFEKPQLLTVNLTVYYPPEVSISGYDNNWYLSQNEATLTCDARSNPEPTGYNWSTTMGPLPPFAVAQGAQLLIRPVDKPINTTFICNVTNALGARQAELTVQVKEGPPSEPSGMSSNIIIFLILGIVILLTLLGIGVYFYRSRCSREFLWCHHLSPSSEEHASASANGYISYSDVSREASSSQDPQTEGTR

B1: VH4 N54S D56E / VK3 N92E (antibody, V domains shown)
VH: EVQLVQSGSELKKPGASVKVSCKTSGYTFTEYTMHWVRQPHGKGLEWIGGIHPNSGETSYNQRFKGRVTITVDKSTSTAYMELSSLRSEDTAVYYCARWTGDFDYWGQGTLVTVSS
VL: DIQMTQSPSAMSASVGDRVTITCKASQNVGTNVAWYQQKPGQPPKALIYSASYRYSGVPDRFSGSGSGTDFTLTISSLQAEDLAEYFCQQYESYPYTFGQGTKLEIK
notes: Humanized variant of Ab825; also called antibody (vi)
- EC50 [1]: 0.0984 µg/mL
- EC50 [2]: 0.585 µg/mL
- EC50 [3]: 0.236 µg/mL

B2: monoclonal antibody defined by SEQ ID 23 (LCVR) and SEQ ID 25 (HCVR) with a IgG4 (S241P) (antibody, V domains shown)
VH: B1 VH with E57G
VL: B1 VL with E92Q
notes: also called VH4 N54S D56G / Vk3 N92Q IgG4 (S241P)
- Kd [4]: 300 pM

B3: VH3 N54S D56G / VK3 N92Q (antibody, V domains shown)
VH: B1 VH with V20I, E57G, I70L
VL: B1 VL with E92Q
notes: Humanized variant of Ab825; also called antibody (iv); Sample 3
- EC50 [1]: 0.0381 µg/mL
- EC50 [2]: 0.0778 µg/mL
- EC50 [3]: 0.0561 µg/mL

B4: VH3 N54Q D56E / VK3 N92E (antibody, V domains shown)
VH: B1 VH with V20I, S55Q, I70L
VL: B1 VL
notes: Humanized variant of Ab825; also called antibody (iii)
- EC50 [1]: 0.115 µg/mL
- EC50 [2]: 0.284 µg/mL
- EC50 [3]: 0.273 µg/mL

B5: VH4 N54Q D56E / VK3 N92Q (antibody, V domains shown)
VH: B1 VH with S55Q
VL: B1 VL with E92Q
notes: Humanized variant of Ab825; also called antibody (viii)
- EC50 [1]: 0.108 µg/mL
- EC50 [2]: 0.523 µg/mL
- EC50 [3]: 0.48 µg/mL

B6: VH4 N54Q D56E / VK3 N92E (antibody, V domains shown)
VH: B1 VH with S55Q
VL: B1 VL
notes: Humanized variant of Ab825; also called antibody (v)
- EC50 [1]: 0.097 µg/mL
- EC50 [2]: 0.551 µg/mL
- EC50 [3]: 0.629 µg/mL

B7: VH4 N54S D56G / VK3 N92E (antibody, V domains shown)
VH: B1 VH with E57G
VL: B1 VL
notes: Humanized variant of Ab825; also called antibody (vii)
- EC50 [1]: 0.0563 µg/mL
- EC50 [2]: 0.191 µg/mL
- EC50 [3]: 0.108 µg/mL

B8: VH4 N54S D56G / VK3 N92Q (antibody, V domains shown)
VH: B1 VH with E57G
VL: B1 VL with E92Q
notes: Humanized variant of Ab825; also called antibody (ix); Sample 4
- EC50 [1]: 0.0446 µg/mL
- EC50 [2]: 0.0932 µg/mL
- EC50 [3]: 0.0869 µg/mL

B9: VH3 N54S D56G / VK2 N92Q (antibody, V domains shown)
VH: B1 VH with V20I, E57G, I70L
VL: B1 VL with Q3V, S63T, E92Q
notes: Humanized variant of Ab825; also called antibody (ii); Sample 2
- EC50 [1]: 0.0383 µg/mL
- EC50 [2]: 0.069 µg/mL
- EC50 [3]: 0.0615 µg/mL

B10: VH3 N54Q D56E / VK2 N92E (antibody, V domains shown)
VH: B1 VH with V20I, S55Q, I70L
VL: B1 VL with Q3V, S63T
notes: Humanized variant of Ab825; also called antibody (i)
- EC50 [1]: 0.168 µg/mL
- EC50 [2]: 0.272 µg/mL
- EC50 [3]: 0.226 µg/mL

B11: Ab825 (VH0/VK0), human IgG1 chimeric antibody (antibody, V domains shown)
VH: EVQLQQSGPELVKPGASVKISCKTSGYTFTEYTMHWVKQSHGKSLEWIGGIHPNNGDTSYNQRFKGKATLTVDKSSSTAYMELRSLTSEDSAVYYCARWTGDFDYWGQGTTLTVST
VL: DIVMTQSPKFMSTSVGDRVSVTCKASQNVGTNVAWYQQKPGQSPKALIYSASYRYSGVPDRFTGSGSGTDFTLTISNVQSEDLAEYFCQQYNSYPYTFGGGTKLEIK
notes: Murine variable regions in a human IgG1 chimeric antibody, derived from D171
- EC50 [1]: 0.0487 µg/mL
- EC50 [2]: 0.0869 µg/mL
- EC50 [3]: 0.086 µg/mL

B12: Ab825-VT680 conjugate (antibody, V domains shown)
VH: B11 VH
VL: B11 VL
notes: Ab825 conjugated to the fluorophore VT680; Neither the chain nor the site of conjugation is stated
- binding result [5]: binds

Source: patent US20220056146A1 (TASRIF PHARMACEUTICAL, published 2022)
